± gives the standard deviation of the averaged measurements.
Assay: total protein half-life in vivo (active degradation + dilution); higher = more stable protein
[1] = E. coli NCM3722 delta-clpP delta-lon delta-hslV, growth: N-lim chemostat, doubling time 6 h
[2] = E. coli NCM3722 delta-clpP, growth: N-lim chemostat, doubling time 6 h
[3] = E. coli NCM3722 delta-hslV, growth: N-lim chemostat, doubling time 6 h
[4] = E. coli NCM3722 delta-lon, growth: N-lim chemostat, doubling time 6 h
[5] = E. coli NCM3722 delta-smpB, growth: N-lim chemostat, doubling time 6 h
[6] = wild type E. coli NCM3722, growth: C-lim chemostat, doubling time 3 h
[7] = wild type E. coli NCM3722, growth: C-lim chemostat, doubling time 6 h
[8] = wild type E. coli NCM3722, growth: C-lim chemostat, doubling time 12 h
[9] = wild type E. coli NCM3722, growth: N-lim chemostat, doubling time 6 h
[10] = wild type E. coli NCM3722, growth: N-lim chemostat, doubling time 12 h
[11] = wild type E. coli NCM3722, growth: P-lim chemostat, doubling time 6 h
[12] = wild type E. coli NCM3722, growth: P-lim chemostat, doubling time 12 h

MATAKKITIHDVALAAGVSVSTVSLVLSGKGRISTATGERVNAAIEELGFVRNRQASALRGGQSGVIGLIVRDLSAPFYAELTAGLTEALEAQGRMVFLLHGGKDGEQLAQRFSLLLNQGVDGVVIAGAAGSSDDLRRMAEEKAIPVIFASRASYLDDVDTVRPDNMQAAQLLTEHLIRNGHQRIAWLGGQSSSLTRAERVGGYCATLLKFGLPFHSDWVLECTSSQKQAAEAITALLRHNPTISAVVCYNETIAMGAWFGLLKAGRQSGESGVDRYFEQQVSLAAFTDATPTTLDDIPVTWASTPARELGITLADRMMQKITHEETHSRNLIIPARLIAAK
total protein half-life in vivo [1]: 6.29 ± 0.064 h | total protein half-life in vivo [2]: 6.58 ± 1.8 h | total protein half-life in vivo [3]: 4.56 h | total protein half-life in vivo [4]: 5.27 ± 0.39 h | total protein half-life in vivo [5]: 4.45 ± 0.36 h | total protein half-life in vivo [6]: 2.7 ± 0.15 h | total protein half-life in vivo [7]: 5.25 ± 0.078 h | total protein half-life in vivo [8]: 8.757 ± 0.013 h | total protein half-life in vivo [9]: 4.64 ± 0.33 h | total protein half-life in vivo [10]: 8.39 ± 2.1 h | total protein half-life in vivo [11]: 4.36 ± 0.092 h | total protein half-life in vivo [12]: 9.01 ± 0.16 h

MSWISPELIEILLTILKAVVILLVVVTCGAFMSFGERRLLGLFQNRYGPNRVGWGGSLQLVADMIKMFFKEDWIPKFSDRVIFTLAPMIAFTSLLLAFAIVPVSPGWVVADLNIGILFFLMMAGLAVYAVLFAGWSSNNKYSLLGAMRASAQTLSYEVFLGLSLMGVVAQAGSFNMTDIVNSQAHVWNVIPQFFGFITFAIAGVAVCHRHPFDQPEAEQELADGYHIEYSGMKFGLFFVGEYIGIVTISALMVTLFFGGWQGPLLPPFIWFALKTAFFMMMFILIRASLPRPRYDQVMSFGWKICLPLTLINLLVTAAVILWQAQ [P0AFD4]
total protein half-life in vivo [2]: 6.49 ± 0.27 h | total protein half-life in vivo [3]: 5.73 ± 0.34 h | total protein half-life in vivo [4]: 6.09 ± 0.59 h | total protein half-life in vivo [5]: 6.41 ± 1.4 h | total protein half-life in vivo [7]: 6.75 ± 1.2 h | total protein half-life in vivo [8]: 13.8 ± 2 h | total protein half-life in vivo [9]: 6.53 ± 0.46 h | total protein half-life in vivo [10]: 9.26 ± 2 h | total protein half-life in vivo [11]: 6.237 ± 0.017 h | total protein half-life in vivo [12]: 13.1 ± 3 h

MPEQYRYTLPVKAGEQRLLGELTGAACATLVAEIAERHAGPVVLIAPDMQNALRLHDEISQFTDQMVMNLADWETLPYDSFSPHQDIISSRLSTLYQLPTMQRGVLIVPVNTLMQRVCPHSFLHGHALVMKKGQRLSRDALRTQLDSAGYRHVDQVMEHGEYATRGALLDLFPMGSELPYRLDFFDDEIDSLRVFDVDSQRTLEEVEAINLLPAHEFPTDKAAIELFRSQWRDTFEVKRDPEHIYQQVSKGTLPAGIEYWQPLFFSEPLPPLFSYFPANTLLVNTGDLETSAERFQADTLARFENRGVDPMRPLLPPQSLWLRVDELFSELKNWPRVQLKTEHLPTKAANANLGFQKLPDLAVQAQQKAPLDALRKFLETFDGPVVFSVESEGRREALGELLARIKIAPQRIMRLDEASDRGRYLMIGAAEHGFVDTVRNLALICESDLLGERVARRRQDSRRTINPDTLIRNLAELHIGQPVVHLEHGVGRYAGMTTLEAGGITGEYLMLTYANDAKLYVPVSSLHLISRYAGGAEENAPLHKLGGDAWSRARQKAAEKVRDVAAELLDIYAQRAAKEGFAFKHDREQYQLFCDSFPFETTPDQAQAINAVLSDMCQPLAMDRLVCGDVGFGKTEVAMRAAFLAVDNHKQVAVLVPTTLLAQQHYDNFRDRFANWPVRIEMISRFRSAKEQTQILAEVAEGKIDILIGTHKLLQSDVKFKDLGLLIVDEEHRFGVRHKERIKAMRANVDILTLTATPIPRTLNMAMSGMRDLSIIATPPARRLAVKTFVREYDSMVVREAILREILRGGQVYYLYNDVENIQKAAERLAELVPEARIAIGHGQMRERELERVMNDFHHQRFNVLVCTTIIETGIDIPTANTIIIERADHFGLAQLHQLRGRVGRSHHQAYAWLLTPHPKAMTTDAQKRLEAIASLEDLGAGFALATHDLEIRGAGELLGEEQSGSMETIGFSLYMELLENAVDALKAGREPSLEDLTSQQTEVELRMPSLLPDDFIPDVNTRLSFYKRIASAKTENELEEIKVELIDRFGLLPDPARTLLDIARLRQQAQKLGIRKLEGNEKGGVIEFAEKNHVNPAWLIGLLQKQPQHYRLDGPTRLKFIQDLSERKTRIEWVRQFMRELEENAIA
total protein half-life in vivo [1]: 5.59 ± 0.3 h | total protein half-life in vivo [2]: 5.07 ± 0.12 h | total protein half-life in vivo [3]: 5.1 ± 0.13 h | total protein half-life in vivo [4]: 5.12 ± 0.13 h | total protein half-life in vivo [5]: 5.021 ± 0.009 h | total protein half-life in vivo [6]: 3.07 ± 0.11 h | total protein half-life in vivo [7]: 6.0491 ± 0.00051 h | total protein half-life in vivo [8]: 11.4 ± 0.52 h | total protein half-life in vivo [9]: 4.9912 ± 0.001 h | total protein half-life in vivo [10]: 8.76 ± 0.27 h | total protein half-life in vivo [11]: 5.92 ± 0.57 h | total protein half-life in vivo [12]: 11.3 ± 0.21 h

MTTETRSLYSQLPAIDRLLRDSSFLSLRDTYGHTRVVELLRQMLDEAREVIRGSQTLPAWCENWAQEVDARLTKEAQSALRPVINLTGTVLHTNLGRALQAEAAVEAVAQAMRSPVTLEYDLDDAGRGHRDRALAQLLCRITGAEDACIVNNNAAAVLLMLAATASGKEVVVSRGELVEIGGAFRIPDVMRQAGCTLHEVGTTNRTHANDYRQAVNENTALLMKVHTSNYSIQGFTKAIDEAELVALGKELDVPVVTDLGSGSLVDLSQYGLPKEPMPQELIAAGVSLVSFSGDKLLGGPQAGIIVGKKEMIARLQSHPLKRALRADKMTLAALEATLRLYLHPEALSEKLPTLRLLTRSAEVIQIQAQRLQAPLAAHYGAEFAVQVMPCLSQIGSGSLPVDRLPSAALTFTPHDGRGSHLESLAARWRELPVPVIGRIYDGRLWLDLRCLEDEQRFLEMLLK [P0A821]
total protein half-life in vivo [1]: 6.33 ± 0.17 h | total protein half-life in vivo [2]: 6.19 ± 0.19 h | total protein half-life in vivo [3]: 5.62 ± 1 h | total protein half-life in vivo [4]: 5.86 ± 0.47 h | total protein half-life in vivo [5]: 5.49 ± 0.32 h | total protein half-life in vivo [6]: 3.16 ± 0.51 h | total protein half-life in vivo [8]: 11.7 ± 0.94 h | total protein half-life in vivo [9]: 5.64 ± 0.39 h | total protein half-life in vivo [10]: 10.6 ± 1 h | total protein half-life in vivo [11]: 6.06 ± 0.4 h | total protein half-life in vivo [12]: 11.9 ± 1.1 h

MKTLIRKFSRTAITVVLVILAFIAIFNAWVYYTESPWTRDARFSADVVAIAPDVSGLITQVNVHDNQLVKKGQILFTIDQPRYQKALEEAQADVAYYQVLAQEKRQEAGRRNRLGVQAMSREEIDQANNVLQTVLHQLAKAQATRDLAKLDLERTVIRAPADGWVTNLNVYTGEFITRGSTAVALVKQNSFYVLAYMEETKLEGVRPGYRAEITPLGSNKVLKGTVDSVAAGVTNASSTRDDKGMATIDSNLEWVRLAQRVPVRIRLDNQQENIWPAGTTATVVVTGKQDRDESQDSFFRKMAHRLREFG
total protein half-life in vivo [2]: 5.51 h
